Assay [1] concerns the target T1, PTPN4-PDZ (residues G499-N604) (human), P29074.
T1 chain: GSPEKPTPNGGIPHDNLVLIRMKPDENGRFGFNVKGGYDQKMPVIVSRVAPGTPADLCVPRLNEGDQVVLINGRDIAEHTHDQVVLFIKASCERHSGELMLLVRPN
The assay is described as follows: NMR titration (rounded value in the text).

The target in assay [2] is T1, PTPN4-PDZ (residues G499-N604) (human), …. Kind of assay: NMR titration, 15N-labeled PTPN4-PDZ with unlabeled peptide.

What is called Kd is the concentration at which binding is half-saturated. For the molecule SWESHKSGGETRL (modifications not checked) [Cyto13-att], the Kd in assay [1] turned out to be 160 µM; in assay [2] it was 157 µM.

Values taken from patent publication US20140302123A1.
